Each block holds one molecule with its values, some of them ahead of it.
What was measured:
[1] = molecular target: recombinant human TGF-β 1 protein (Cat: CA59, Novoprotein Scientific Inc.) (human) (UniProt P01137); assay: BLI (Octet QKe), binder captured on AHC biosensor, 1:1 fit
[2] = molecular target: T1, human TGF-β 3 (Cat: CJ44, Novoprotein Scientific Inc.) (human) (UniProt P10600); assay: ELISA, target coated at 1 µg/ml, HRP-anti-human Fc detection
T1 sequence (looked up): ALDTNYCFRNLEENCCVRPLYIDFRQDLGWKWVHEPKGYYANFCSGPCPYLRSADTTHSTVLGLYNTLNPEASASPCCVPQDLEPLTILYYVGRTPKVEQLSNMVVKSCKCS

[3] = molecular target: recombinant human TGF-β 1 protein (Cat: CA59, Novoprotein Scientific Inc.) (human) (UniProt P01137); assay: as above
[4] = molecular target: T2, human TGF-β 2 (Cat: CJ79, Novoprotein Scientific Inc.) (human) (UniProt P61812); assay: as above
T2 sequence (looked up): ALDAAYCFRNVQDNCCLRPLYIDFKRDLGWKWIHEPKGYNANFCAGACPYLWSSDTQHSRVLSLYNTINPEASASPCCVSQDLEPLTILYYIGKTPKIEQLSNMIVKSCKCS

[5] = molecular target: T3, recombinant human PD-L1-his protein (Accession No.: NP_054862.1, 19 aa-238 aa) (human, UniProt Q9NZQ7 19-238); assay: BLI (Octet QKe), binder captured on AHC biosensor, analyte 60 nM, 1:1 fit
T3 construct: range 19-238; also called recombinant human PD-L1 extracellular domain protein; not shown: his tag
T3 sequence (Q9NZQ7 19-238 limits assumed): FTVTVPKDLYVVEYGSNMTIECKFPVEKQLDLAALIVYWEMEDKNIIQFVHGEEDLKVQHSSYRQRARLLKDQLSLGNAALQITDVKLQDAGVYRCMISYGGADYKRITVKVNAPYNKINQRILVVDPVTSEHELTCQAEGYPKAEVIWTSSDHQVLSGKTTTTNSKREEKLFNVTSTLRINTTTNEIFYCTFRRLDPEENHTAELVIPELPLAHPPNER
Excerpt: Antibody affinity was detected by an assay including capturing antibody Fc fragment with anti-human IgG Fc capture (AHC) biosensors on Octet QKe system instrument from Fortebio. […] The binding time was 300 s and the dissociation time was 300 s.

recombinant human TGF-β 1 protein (Cat: CA59, Novoprotein Scientific Inc.) (human), sequence (P01137 279-390 limits assumed): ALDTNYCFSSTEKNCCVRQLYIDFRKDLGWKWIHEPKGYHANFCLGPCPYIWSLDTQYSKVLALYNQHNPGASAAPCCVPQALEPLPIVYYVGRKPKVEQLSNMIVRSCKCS

Kd [1]: 2.81 nM | EC50 [2]: 0.981 nM | EC50 [3]: 0.472 nM | EC50 [4]: 18.2 nM
Molecule: recombinant protein M7824 (anti-human PD-L1 antibody/TGF-β RII fusion protein control)

Kd [5]: 0.433 nM
B1: PD-L1 antibody H182-MUT4 (antibody, human IgG1, kappa, V domains shown)
VH: EVQLVQSGAEVKKPGATVKISCKVSGFNIKDIYMHWVQQAPGKGLEWMGRIDPANANTKYDPKFQDRVTITADTSTNTAYMELSSLRSEDTAVYYCASGQLGPLGFDYWGQGTTVTVSS
VL: DIQMTQSPSSLSASVGDRVTITCRASQDISNYLNWYQQKPGKAPKLLLYYTSRLHSGVPSRFSGSGSGTDYTLTISSLQPEDFATYFCQQGAGRPYTFGGGTKVEIKR
notes: 25-30 for the anti-human PD-L1 antibody without naming H182-MUT4; also called MW22

Reference: patent US20230365653A1 (MABWELL SHANGHAI BIOSCIENCE, published 2023)
